# In US12016910B2, “Antigenic peptides for prevention and treatment of cancer” (ENTEROME S.A., priority 2018, dated 2024):
# Key:
# [1] = target: T1, HLA-A*0201 (Homo sapiens, UniProt P04439, D140Y/D185E/D98H/E176V/E277Q/G131W/G231S/I119V/I121R/I166T/I218V/L300P/L318F/N151K/N90K/P208A/P217A/Q86G/Q94H/R138H/R169H/T345S); assay: Affinity of the peptide to T2 cell line: HLA-A2 labelling by FACS, relative to HIV pol 589-597; type: binding; settings: for binding affinity to HLA-A*0201 compared with the other peptides tested (in words): Examples 2, 7, 8, 9; for binding to HLA-A*0201 as % of maximum HIV pol 589-597 binding activity: Example 8
# T1 construct: the human tumoral cell T2 which expresses the HLA-A*0201 molecule; endogenous in cells; host or cells: T2 cells (human, TAP1/2 negative)
# From the text: The experimental protocol is similar to the one that was validated for peptides presented by the HLA-A*0201 (Tourdot et al., A general strategy to enhance immunogenicity of low-affinity HLA-A2.1-associated peptides: implication in the identification of cryptic tumor epitopes. Eur J Immunol. 2000 December; 30(12):3411-21). Affinity measurement of the peptides is achieved with the human tumoral cell T2 which expresses the HLA-A*0201 molecule, but which is TAP1/2 negative and incapable of presenting endogenous peptides.
# T2 cells (2.10^5 cells per well) are incubated with decreasing concentrations of peptides from 100 μM to 1.5625 μM in a AIMV medium supplemented with 100 ng/μl of human β2m at 37° C. for 16 hours. Cells are then washed two times and marked with the anti-HLA-A2 antibody coupled to PE (clone BB7.2, BD Pharmagen).
# The analysis is achieved by FACS (Guava Easy Cyte).
# A2. Solubilisation of Peptides
# Each peptide is solubilized by taking into account the amino acid composition. […] Other peptides are resuspended in water or PBS pH7.4.
# The experimental protocol, materials and methods correspond to those outlined in Example 2, with the only difference that the above mentioned (poly)peptides were used.
# [2] = test system: T cell responses (IFNγ-producing splenocytes); assay: ELISPOT-IFNγ assay on splenocytes of vaccinated HLA-A2 humanized mice; type: in vivo, HLA-A2 (CB6F1-Tg(HLA-A*0201/H2-Kb)A*0201) mice; settings: 100 μg vacc-pAg + 150 μg T13L + IFA s.c. d0 and d14; splenocytes d21 restimulated with vacc-pAg 10 μM
# From the text: Briefly, HLA-A2 humanized mice (HLA-A2 (CB6F1-Tg(HLA-A*0201/H2-Kb)A*0201) were assigned randomly (based on mouse sex and age) to experimental groups, wherein each group was immunized with a specific vaccination peptide (vacc-pAg) combined to a common helper peptide (h-pAg T13L; sequence: […]; SEQ ID NO: 860; Bhasin M, Singh H, Raghava GP (2003) MHCBN: a comprehensive database of MHC binding and non-binding peptides. Bioinformatics 19: 665-666) (as outlined in Table 5 below). The vacc-pAg were compared in couples (group 1 vs. group 2, group 1 vs. group 3; group 1 vs. group 4; group 5 vs. group 6; group 7 vs. group 8; group 9 vs. group 10). Thereby, both native and optimized versions of a single peptide were compared in each wave.
# The peptides were provided as follows: • vacc-pAg: BIRC5-H, BIRC5-B1, BIRC5-B2, BIRC5-B3, FOXM1-H2, FOXM1-B2, EZH2-H2, EZH2-B2, 1L13RA2-H and IL13RA2-B; all produced and provided at a 4 mg/ml (4 mM) concentration; • h-pAg: T13L; Eurogentec batch 1713334 re-suspended in pure distilled water at a 10 mg/mL concentration
# The animals were immunized on day 0 (d0) with a prime injection, and on d14 with a boost injection. Each mouse was injected s.c. at tail base with 100 μL of an oil-based emulsion that contained: • 100 μg of vacc-pAg (25 μL of 4 mg/mL stock per mouse); • 150 μg of h-pAg (15 μL of 10 mg/mL stock per mouse); • 10 μL of PBS to reach a total volume of 50 μL (per mouse); • Incomplete Freund's Adjuvant (IFA) added at 1:1 (v:v) ratio (50 μL per mouse).
# A separate emulsion was prepared for each vacc-pAg, as follows: IFA reagent was added to the vacc-pAg/h-pAg/PBS mixture in a 15 mL tube and mixed on vortex for repeated cycles of 1 min until forming a thick emulsion.
# Seven days after the boost injection (i.e. on d21), the animals were euthanized and the spleen was harvested. Splenocytes were prepared by mechanical disruption of the organ followed by 70 μm-filtering and Ficoll density gradient purification.
# The splenocytes were immediately used in an ELISPOT-IFNγ assay (Table 6). Experimental conditions were repeated in triplicates, using 2*10^5 total splenocytes per well, and were cultured in presence of vacc-pAg (10 μM), lonomycin (0.1 μM) plus PMA (1 μM) or medium-only to assess for their capacity to secrete IFNγ. The commercial ELISPOT-IFNγ kit (Diaclone Kit Mujrine IFNγ ELISpot) was used following the manufacturer's instructions, and the assay was performed after about 19 h of incubation.
# Spots were counted on a CTL ELISpot reader. Data plotting and statistical analysis were performed with the Prism-5 software (GraphPad Software Inc.).
# The data were then normalized as a number of specific spots (the average counts obtained in the ‘medium only’ condition being subtracted) per 50*10^3 total T cells.
# The individual average values (obtained from the triplicates) were next used to plot the group average values. As the functional capacity of T cells might vary from individual to individual, the data were also expressed as the percentage of the ionomycin plus PMA response per individual (see FIG. 8).
# [3] = test system: T-cells (IFN-secreting splenocytes); assay: Immunogenicity and cross-reactivity, IFN ELISpot on splenocytes of immunized HHD DR3 mice; type: in vivo; settings: for immunogenicity: immune response after challenge with the vaccination peptide or the human corresponding peptide (IFN ELISpot): 100 μg peptide + 150 μg helper peptide (DR3) + IFA s.c. days 0 and 14, splenocytes day 21; for immune response against the corresponding human peptide (cross-reactivity): same immunisation
# Procedure: Concanavalin A (ConA) was used as a positive control.
# The antigenic peptide of the invention BIRC5-B1 (SEQ ID NO: 32) and the corresponding human peptide BIRC5-H (SEQ ID NO: 593) were tested in distinct groups of male and female HHD DR3 mice expressing human HLA-A2 and HLA-DR3 MHC and lacking the murine H-2 class I and class II MHCs. Groups of 5 mice (male and female) were subcutaneously injected on days 0 and 14 with 100 μg of BIRC5-B1 or BIRC5-H, 150 μg of helper peptide (DR3) and IFA. On day 21, the mice were euthanized and splenocytes were prepared and stimulated in vitro with BIRC5-B1 or the human peptide BIRC5-H to assess their capacity to secrete IFN—as assessed by ELISpot. ConA was used as a positive control.
# The antigenic peptide of the invention FOXM1-B2 (SEQ ID NO: 220) and the corresponding human peptide FOXM1-H2 (SEQ ID NO: 674) were tested in distinct groups of male and female HHD DR3 mice expressing human HLA-A2 and HLA-DR3 MHC and lacking the murine H-2 class I and class II MHCs. Groups of 5 mice (male and female) were subcutaneously injected on days 0 and 14 with 100 μg of FOXM1-B2 or FOXM1-H2, 150 μg of helper peptide (DR3) and IFA. On day 21, the mice were euthanized and splenocytes were prepared and stimulated in vitro with FOXM1-B2 or the human corresponding peptide FOXM1-H2 to assess their capacity to secrete IFN—as assessed by ELISpot. ConA was used as a positive control
# [4] = test system: T-cells (IFN-secreting splenocytes); assay: Immunogenicity and cross-reactivity, confirmation in HHD DR1 mice; type: in vivo; settings: HHD DR3 and HHD DR1 mice, summary of Examples 4 to 6
substance,measurement,setting,value
FLDSLGFSL [TYMS B2],Concentration of peptide that induces 20% of HLA-A2 expression,"[1]; Example 2, Table 4",2.7 µM
ILDEAYVRV [EGFR-B],Concentration of peptide that induces 20% of HLA-A2 expression,"[1]; Example 2, Table 4",3.1 µM
YTLGEFLYI [BIRC5-B2],T cell responses in the ELISPOT-IFNγ assay compared to the respective human reference epitope,[2],improved T cell responses
same,Concentration of peptide that induces 20% of HLA-A2 expression,"[1]; Example 2, Table 4",14.7 µM
RLSSYLVEI [FOXM1-B],Concentration of peptide that induces 20% of HLA-A2 expression,"[1]; Example 2, Table 4",46.7 µM
SMEELLWFV [TYMS B],Concentration of peptide that induces 20% of HLA-A2 expression,"[1]; Example 2, Table 4",1.1 µM
GLLGEFLQI [BIRC5-B3],T cell responses in the ELISPOT-IFNγ assay compared to the respective human reference epitope,[2],improved T cell responses
same,Concentration of peptide that induces 20% of HLA-A2 expression,"[1]; Example 2, Table 4",22.9 µM
"LMDLSTTPL (listed as Homo sapiens) [FOXM1-H2, reference compound]",immunogenicity: immune response after challenge with the vaccination peptide or the human corresponding peptide (IFN ELISpot),[3],does not induce immune response
same,Concentration of peptide that induces 20% of HLA-A2 expression,"[1]; Example 2, Table 4",12.6 µM
"VLEELLWFI (listed as Homo sapiens) [TYMS H, reference compound]",Concentration of peptide that induces 20% of HLA-A2 expression,"[1]; Example 2, Table 4",4.1 µM
LLLSAALSV [CHI3L1 B],Concentration of peptide that induces 20% of HLA-A2 expression,"[1]; Example 2, Table 4",3.6 µM
AVFRVLIPV [EZH2-B2],T cell responses in the ELISPOT-IFNγ assay compared to the respective human reference epitope,[2],improved T cell responses
same,Concentration of peptide that induces 20% of HLA-A2 expression,"[1]; Example 2, Table 4",8.3 µM
"RVSSYLVPI (listed as Homo sapiens) [FOXM1-H, reference compound]",Concentration of peptide that induces 20% of HLA-A2 expression,"[1]; Example 2, Table 4",37.6 µM
FLVEDETVI [EZH2-B],Concentration of peptide that induces 20% of HLA-A2 expression,"[1]; Example 2, Table 4",8.8 µM
"1A9V: comparative peptide (Eguchi et al., 2006): SEQ ID NO: 691 with tryptophan 1 substituted by alanine, isoleucine 9 by valine (ALPFGFILV; comparative peptide) [reference compound]",Concentration of peptide that induces 20% of HLA-A2 expression,"[1]; Example 8, Table 8",36.5 µM
same,binding affinity to HLA-A*0201 compared with the other peptides tested (in words),[1],lowest affinity of the peptides tested
YLLSAALTI [CHI3L1 B3],Concentration of peptide that induces 20% of HLA-A2 expression,"[1]; Example 2, Table 4",8.6 µM
"SMFRVLIGT (listed as Homo sapiens) [EZH2-H2, reference compound]",Concentration of peptide that induces 20% of HLA-A2 expression,"[1]; Example 2, Table 4",39.2 µM
FMLGEFLKL [BIRC5-B1],immunogenicity: immune response after challenge with the vaccination peptide or the human corresponding peptide (IFN ELISpot),[3],strongly immunogenic
same,immune response against the corresponding human peptide (cross-reactivity),[3],able to drive an effective immune response against human corresponding peptide
same,T cell responses in the ELISPOT-IFNγ assay compared to the respective human reference epitope,[2],improved T cell responses
same,Concentration of peptide that induces 20% of HLA-A2 expression,"[1]; Example 2, Table 4",2.7 µM
same,Concentration of peptide that induces 20% of HLA-A2 expression,"[1]; Example 9, Table 9",1.24 µM
same,binding affinity to HLA-A*0201 compared with the other peptides tested (in words),[1],considerably higher in vitro binding affinity
same,immune responses induced,[4],induced strong immune responses
"FLDSLGFST (listed as Homo sapiens) [TYMS H2, reference compound]",Concentration of peptide that induces 20% of HLA-A2 expression,"[1]; Example 2, Table 4",9.5 µM
FLPFGFILPV [IL13RA2-L],immunogenicity: immune response after challenge with the vaccination peptide or the human corresponding peptide (IFN ELISpot),[3],strongly immunogenic
same,immune response against the corresponding human peptide (cross-reactivity),[3],able to drive an effective immune response against the corresponding human peptide
same,Concentration of peptide that induces 20% of HLA-A2 expression,"[1]; Example 2, Table 4",3.2 µM
same,Concentration of peptide that induces 20% of HLA-A2 expression,"[1]; Example 8, Table 8",3.2 µM
same,binding affinity to HLA-A*0201 compared with the other peptides tested (in words),[1],considerably higher binding affinity
same,binding to HLA-A*0201 as % of maximum HIV pol 589-597 binding activity,[1]; at 6.25 μM,43%
same,binding to HLA-A*0201 as % of maximum HIV pol 589-597 binding activity,[1]; at 25 μM,96%
same,binding to HLA-A*0201 as % of maximum HIV pol 589-597 binding activity,[1]; at 100 μM,69%
same,immune responses induced,[4],induced strong immune responses
"FMVEDETVL (listed as Homo sapiens) [EZH2-H, reference compound]",Concentration of peptide that induces 20% of HLA-A2 expression,"[1]; Example 2, Table 4",13.3 µM
"WLPFGFILI (listed as Homo sapiens) [IL13RA2-H, reference compound]",immunogenicity: immune response after challenge with the vaccination peptide or the human corresponding peptide (IFN ELISpot),[3],does not induce an immune response
FLPFGFILV [IL13RA2-B],T cell responses in the ELISPOT-IFNγ assay compared to the respective human reference epitope,[2],improved T cell responses
same,Concentration of peptide that induces 20% of HLA-A2 expression,"[1]; Example 2, Table 4",2.9 µM
same,Concentration of peptide that induces 20% of HLA-A2 expression,"[1]; Example 8, Table 8",2.9 µM
same,binding affinity to HLA-A*0201 compared with the other peptides tested (in words),[1],considerably higher binding affinity
"LMLGEFLKL [2M, reference compound]",Concentration of peptide that induces 20% of HLA-A2 expression,"[1]; Example 9, Table 9",2.87 µM
"LTLGEFLKL (listed as Homo sapiens) [BIRC5-H, reference compound]",immunogenicity: immune response after challenge with the vaccination peptide or the human corresponding peptide (IFN ELISpot),[3],does not induce any immune response
same,Concentration of peptide that induces 20% of HLA-A2 expression,"[1]; Example 2, Table 4",53.0 µM
same,Concentration of peptide that induces 20% of HLA-A2 expression,"[1]; Example 9, Table 9",95.9 µM
LMDLSTTEV [FOXM1-B2],immunogenicity: immune response after challenge with the vaccination peptide or the human corresponding peptide (IFN ELISpot),[3],strongly immunogenic
same,immune response against the corresponding human peptide (cross-reactivity),[3],able to drive an effective immune response against human corresponding peptide
same,T cell responses in the ELISPOT-IFNγ assay compared to the respective human reference epitope,[2],improved T cell responses
same,Concentration of peptide that induces 20% of HLA-A2 expression,"[1]; Example 2, Table 4",6.7 µM
same,immune responses induced,[4],induced strong immune responses
